# Results from the DeepSol protein solubility set.
# Assay: soluble on expression in E. coli; label from the status in PepcDB or PDB records
row,Sequence,soluble on expression in E. coli
1,MAHFGKLALSVTAAAVLALSAQARDQIKMAGSSTVYPFSSYVAEEFGATTGNKTPVVESLGTGGGFKVFCAGDGLDTTDIANASRPIKKSEFDNCVANGVTDITGVMIGYDGISIAQSKANAAINFKIEHLFLALAEEVPVDGKLVKNPYKTWNQVDASLPNRPIVVYGPPTTS,not soluble
2,MAHHHHHHGTEKTPDDVFKLAKDEKVEYVDVRFCDLPGIMQHFTIPASAFDKSVFDDGLAFDGSSIRGFQSIHESDMLLLPDPETARIDPFRAAKTLNINFFVHDPFTLEPYSRDPRNIARKAENYLISTGIADTAYFGAEAEFYIFDSVSFDSRANGSFYEVDAISGWWNTGAATEADGSPNRGYKVRHKGGYFPVAPNDQYVDLRDKMLTNLINSGFILEKGHHEVGSGGQAEINYQFNSLLHAADDMQLYKYIIKNTAWQNGKTVTFMPKPLFGDNGSGMHCHQSLWKDGAPLMYDETGYAGLSDTARHYIGGLLHHAPSLLAFTNPTVNSYKRLVPGYEAPINLVYSQRNRSACVRIPITGSNPKAKRLEFRSPDSSGNPYLAFSAMLMAGLDGIKNKIEPQAPVDKDLYELPPEEAASIPQTPTQLSDVIDRLEADHEYLTEGGVFTNDLIETWISFKRENEIEPVNIRPHPYEFALYYDV,soluble
3,MAHHHHHHMAACRSTPLTSSPVACEQAHRQPTIVDRDYEASKYWKSHRCRRIPKATGLTAVLITNPGLSVFTHQPHSRTNTVQGRKSCQGQQTTGRQLQISGNRAVADSVPRSQKNSVTAAWSV,not soluble
4,MAHHHHHHMAAVTQQGNDTRKLRCNVYVASLPLDFDDDQLFDLFSPYGRISSARIMRSKGARQSRGYGFVLFRHASSAEKAIDSLVGYVIGGSRIQVRLAHPEASVAYSGQRGSRSGNSTPGALPEKTLPAASGVITPPPPSSAIISHPNDSGMMVQTYPITTMYPTMYPSVVPQIIAQPQAPVPAAMQQVVFLPQYAQQSNQSTPPTFYMMVPDAMQAVPPTLS,soluble
5,MAHHHHHHMAAYGIVESPDNVDYKTKCCCQTTDGVYFQVPKEYFRLHANLSRRKLLIAEPFGVPLDSSAFESLVVLLEKAAIVSPAAATAGTEVVSKGDGAKQQWIKDLNKRQQKFVGACLGVTTWDGADVYFYEEKLPKESDVVWVKVIQVNDTSAVVQLLEYGNHEGIIPYTEITRIRIRAIGKVIKVGKNEAAQVIRIDKDKGYIDLSKKQVTLKEAKDCEARFFKGNEVRSVVCHVADECGVPPAEAMKRIAYPLYRRQPGKHAWEWLYELNQTKDVKGILGDLEISEAEIKVLMTTLEHTMRTEIATIHADIEMTCFQCDGVNALREVLLVGRDFKAGKDPLIPISVTIVGPPKYRLRAKTELKEEGIVRMKEAIEMMKIEMAKRGGILKVVAGPFVLGEEEHTKEERNEDAEDDEGEDTD,not soluble
6,MAHHHHHHMACDFELPLFAAPCSEVLSTQMSVVDGKMAEKSDKAKRTARASACMIRKGFFSHFPQAILTSPESGIKTAPHPWSNASLMMAADAFSVGLMLRLRLFSIICRNPSPKPTAAGGRFAGYVFCTIPRLSADNCRRTALLKKSWSYKRMPKMAAKYKKRDAVTSISAMVKELSAGMARTDRRNFSLRDTVW,not soluble
7,MAHHHHHHMAKHSTFKNLVKLHGDMKKEELLVLFFHSCILDNNFIYKLNDEQKYEKSESHEKIKISNGYIKHMTDVGSGKFFLSRILIDPEWRSNSSSYNFLYQSVDTNDTYNLNLVKIENSLVVQIINTAQPSVVHSVTIDVGEYVNECTAEEGKTDNIEDRVMMEKLEGVFQTHILSHMKKGSSNNILGDNSSSKGKGPKGLIIESNANEHFRNVFQTNPDPYLLPNFNANHFDDKNPNIGRSLIPDLRNNVPILKPDGLLVGPDNKFFNPKNLRYDPIGPFGNEPNADNKPFEFQDNFPF,not soluble
8,MAHHHHHHMALLVYLNNKQTHSFIAVRKSSSLLFSPGNFKAIYQRIYEHLNDQYEERGQLEAGEEILTVKPNVFAQNGVIDFDGVRKMWTSHIVPQLRRCVTGDHLANTTDNSVVSIEESAVFCDIGSGVGNVCLQLLAETNCRKVVGVEVIPSRHRAATTAFAKALSYFPENFSGKQAIFIQDDFVNCARRMVEENVNVIFTHSWMFDDELMKRLTELVVSLPALLCVVTSRPLHENLLVGSQMKLVSYVHLTADWNDEAPFFIYRKIT,not soluble
9,MAHHHHHHMAQSLVWRYLGPEDTHRCLDAPDVPSVRNLLVEIDDGMDGKLINCRNYNKGQLMIVLDMLAHLIVFTKTCSMSLEKVSTIVGIMLELHRESMSNQYTRSQSYHRLRELMLLHSVPRPPFSCGIFSVADVQHIDEYLLLSYFRHYKMYVYAFVPQRLANIHSVSVGHNHCVPPLGLPALTTATPRAEWIAKVEDTHRQMEERQMEVEDVRSAEYEEEWLKHRYLNGTHYSEGLREQLQSIKRDVSDKALNQLDLIEARLVEIEKKVEIVQQRQDGKGGKRKK,not soluble
10,MAHHHHHHMASGCLKYASVDDFIAKCILSRDPYQPEFTQAVREVMTSLWPFLQKNPKYTQDGLLERIVEPERVIQFRVPWVDDKGVTHVNRAFRVQFNSAIGPYKGGMRFHPSVNLSILKFLGFEQTFKNSLTTLPMGGGKGGADFDPKGKSDCEVMRFCQSLVAELYRHIGADTDVPAGDIGVGSREVGYMNGMYWKLRNTNECTFTGKGLAFQGSAIRPEATGYGLVYFVQSMLTHVNDSLEGKTVLVSGSGNVAQYAIEKCMELGAKVITASDSKGYIQDPSGFDKVKLAKLMKLKNECRGTLEEYARETGVTYVPGKRPWCVKADIALPCATQNEIEGADAKTMLTNGVKLVAEGANMPTTEEATEIFQKAGVLFAPGKASNAGGVAISGLEMSQNAARLVWDAEEVDSRLRSIMSSIHDSCVQYGEKDGKVSYVDGANIAGFACFLRRRTFATRVSPVHQVLCT,soluble
11,MAHHHHHHMAVAYVFDGAVLKQMSLEAGHPKFTVLDTPLCSDSAVTCFGKDEFYFINGSVPNVLRHFGGRSGCTEHFLPGPAHCLLVHRQKVYCCGVDCLYVFDPLGEEVETIELGQQIKELTAADHGFVFVNDRHELYAFHFTRGVKIVGTKGPVSKLLGHHNRYAVVLLDNGDVISVNEEAEVRENLFPLKIKERFVALDTGMTLALREDELALHMNGTWLCLDGFKGRELQFLGVPLTPAEDACTICFCDFEDGDGVRLDCGHPFHRDCLAEFSTHAKSFVEKGEHIVFTYAVCPSGCGTHIRHAAAPLSAYMNDLYRAVTKDAEGRLREMENKTLEDLYYYVCCRCEKPYYGGNRWCSRTISGEPCKKPSELICSDCNDDFLCPSHNHDFVLYKCRYCCNPATHLSFGNRYMCDACNKKWEGTEPEPMECPGAEKCPLGGAHPTGGSQPLGCMLCTLFDKCDAKHFFPPQ,not soluble
12,MAHHHHHHMAYALVEADSISFSLKPADLCADSPLEYGSPREKETNGLSPCGDKGPLTPFGVRPHLFSKGWWRLVVLSSVPLDSYRAIPKDTWSFTEKGQLKQGSNALLFSYACTVSDRTDITLLLDVHSQRPIPFRIKIFRAGVEGPPVFVSEECVNHLFVPHVAVDVPEKVKNVAYIIEAWLDKEKVEEWERMRRLSQELKFLLAAEAARVKAEMKQQKELQEYHEDPRAFKERLLNQEMGPVENLVPTPLREQMSVSSKKGRPSVDKRRTLSNAAPSRQTIVRTSVTPSTPASAVAVHIDSIDPELVVTYDLRLYFSAKTDVKCVATGKDPLTTMRGLWVHQLILFLGKPLRSPVVAREGSVGSRRILLHLLKNYTRRII,not soluble
13,MAHHHHHHMAYPYNAYLGYTQPPTQYGQPPVVAGAHGHLPVTTPLPYNAQSAYGGAQPP,not soluble
14,MAHHHHHHMAYPYNAYLGYTQPPTQYGQPPVVAGAHGHLPVTTPLPYNAQSAYGGAQPPMPTSTGVYAPSARHMNDNQELMEWFRAVDTDGSGAISVPELNAALSSAGVPFSLATTEKLLHMYDKNHSGEITFDEFKDLHHFILSMREGFRKRDSSGDGRLDSNEVRAALLSSGYQVSEQTFQALMRKFDRQRRGSLGFDDYVELSIFVCRVRNVFAFYDRERTGQVTFTFDTFIGGSVSIL,soluble
15,MAHHHHHHMCLGRSSGSALDTPLGAWWGGKRVAEIPPCPAESVTFVQLIARHFSPFVLRQHLPGAQDGLVTSSVQTREVAHKPVGCDVAVLVVVKRGAQVLRLPFARPHAKIPQKINKKLVRHALLTTRPLLLLQLKELSQCLNDRLWAAPTTQGALHTQKHAILARVVRVTPQHRRHRTTKAKQQQQQKQRNCSLVKSAHKT,not soluble
16,MAHHHHHHMDAPVNVFLRFGLSHSERLNHLLERVGTAQAAFRIVGPRQQEGVARTPAHPHDGADCARVGAPFSVHSGSCSHTCKGEAHDELCASLARLPPLPSPPPASHTCYCLHRTRFRCFCFPSPSLLQRRTLGGGGIGVGRAADVQHPFNGQEPALSVYFTHCHAGLRRTSPRCLISYCGRVSSLRFAFPLGDQVTFFVPLFHTDTSSMGTTHEYEPPVAMKPLEELTDADRREMRDLGIGEGMFNCILTSCMKFALSGGWSVRKHDAKYDIVWETKPSQNSNKQAMRFTAKVPNCNTGSLEAILVADEYLEDDPNVSYMYKYDRLLQQNHAEKRIAGNVTVQSTHYGAPVMFVAPRHIISYVTLGALLTPAQQKELWIRPTGLRDQLADAERKDDLMAFTQCCIDYTGDAVELRKGSERGHVYSYSLLGQEEPDGSMTVTMTLDIDPAGKLPAKVVDMSSDEQHKKMQRIVELLKAKGPQPHLCSVYQNTRDFPFRNPSKGEGEGKRS,soluble
17,MAHHHHHHMDEEVVLRGVEDITCRCVYSHVYVYARVCVFGYVLPSSSVVYRGTLAMECTFGVHEKKNKMKKNKCYLRGQTIGTRDTVCGVMCLNIPPRHCYCSFFLFPFYNPFLL,not soluble
18,MAHHHHHHMDEGLPIDASEAQLEAIRREVAQYPLLSLSLPLNKESMIVKEMEHDDAYLAQTLSLFGASPVSTKQYDFGSIRYSRRDGNCFYRCAGFRLCELIVEHPERAAEYVALLKSREESLSRLFGLFVFDFTDALAEILKGVADKTITSVAQVYNRFISDDAAYVLAALRYLISAYLQEHEEEYEPFVSGLGYGAVRDYCNAEVELVDHESDNVQLAAFAKAFNVCIKVYALDRNAGNNITEYSFNGEDNDAGDRLVVGLLYMPGHYNLLGRGPG,not soluble
19,MAHHHHHHMDSPTEFSCGTQWDDDRRGEEPLLPELTLHGCGLRNLSLIVRGAQGAVYSAHDENGNRFAVKRLFTQRSDFGIRGVSEGALREATLLTLVRQEMEKLVHDTAFDVVRLQGVVEAPYKELCLILEYCSLDLSQVVVKSKRHTRSFPLVAEGPQVRCPVLSNMGVVRYLLRGILQILNNLHVNCRIIHRDVKLSNFLVRGDGSVRLSDFGSARLLHETVEEKEAAECVTSDPQDEDEVDCSDPFSHSCEGYTPAAQRTTLIYQAPECLLGERTYTTAVDVWAVGIVFAEILLQRHLFRSVNELTLISDIWRLLGTPSTKGEDPNIQGTNGVTFAAPTEPTVDVKFNDDIVSPEGRDLLKKMLEVDPKKRVTAADALRHSFLTSVDAQLSLKEAPALWREKVKECLEGGTQAVPMGAPFLALDDDEEEEEEEEDVDMNMATL,not soluble
20,MAHHHHHHMELLNQENDGFLEDMSDSINKQIKELENVPSKDIIRNIWFKVHCNERNKFHSLIYSIRKIHDKYFSDTNKNEELGKKVWNKCCAIITEELLKLDSIQNSQFHNLMQQETVTLQEFEDFVKFSVNGYKNTKKETKKICIKKLKKALNQRL,soluble
21,MAHHHHHHMENIKLGFMGLGQMGSALAHGIANANIIKKENLFYYGPSKKNTTLNYMSSNEELARHCDIIVCAVKPDIAGSVLNNIKPYLSSKLLISICGGLNIGKLEEMVGSENKIVWVMPNTPCLVGEGSFIYCSNKNVNSTDKKYVNDIFNSCGIIHEIKEKDMDIATAISGCGPAYVYLFIESLIDAGVKNGLSRELSKNLVLQTIKGSVEMVKKSDQPVQQLKDNIVSPGGITAVGLYSLEKNSFKYTVMNAVEAACEKSKAMGSK,soluble
